Reference: patent US8613927B2, “High affinity human antibodies to human nerve growth factor” (Regeneron Pharmaceuticals, Inc., priority 2007, dated 2013)
Where two headings read alike, the source gives them in different places.

Target: T1, Human NGF (PC12 cells, rat adrenal medulla cell line) (Homo sapiens, UniProt P01138, DEL136-138/DEL208-209)
T1 construct: host or cells: NGF added exogenously; receptors endogenous in PC12 cells
Experiment: PC12 SRE-luciferase assay of NGF signaling through p75 and TrkA
Format: cell-based
Procedure: The ability of NGF antibodies to block NGF signaling p75 and TrkA receptor-mediated activity was also measured in vitro using a rat adrenal medulla cell line, PC12, which express both receptors endogenously (Urdiales et al. 1998 J. Neuroscience 18(17):6767-6775). Briefly, PC12 cells were stably transfected with a reporter plasmid containing a serum response element (SRE) linked to a luciferase gene. The transfected cells were resuspended at approximately 2.5×10^5 cells per ml and plated at 50,000 cells per well in a 96-well tissue culture plate in Opti-MEM media overnight. The purified antibody proteins were serially diluted in medium (DMEM plus 0.1% BSA) and added to the plated cells at concentrations ranging from 0 to 100 nM. Human NGF was added to the wells to a final concentration of 12.5 pM. Luciferase activity was measured after incubating the cells for 6 hours at 37° C. in a humidified 7.5% CO2 incubator using BRIGHT GLOW™ luciferase assay system (Promega). Control mAb=RN624.

T1 sequence (P01138 with tags, fused parts or gaps DEL136-138/DEL208-209): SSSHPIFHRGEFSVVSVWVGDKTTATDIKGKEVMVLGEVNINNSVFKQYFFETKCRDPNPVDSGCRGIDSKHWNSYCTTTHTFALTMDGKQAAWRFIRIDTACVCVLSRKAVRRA

IC50 (Table 10, 12.5 pM human NGF, 6 hours, read-out: PC12 IC50): 21 pM
IC50 (Table 11, selected purified antibodies, PC12 luciferase, read-out: IC50): 4.9 pM
Substance: tanezumab [RN624]
